Legend:
[1] = target: PvS1FL (full-length Plasmodium vivax subtilisin-like protease 1, Sub1, autoprocessed with bound prodomain) (UniProt E6Y8B9); assay: analytical ultracentrifugation, sedimentation equilibrium (Beckman Coulter XL-I, absorbance at 280 nm); details: 20°C, 150 mM NaCl, 10 mM CaCl2, pH 5: 50 mM NaCit (sodium citrate), pH 8: 50 mM Tris
[2] = target: the molecule itself; assay: AUC; sedimentation equilibrium, pH 5 (50 mM NaCit pH 5, 150 mM NaCl, 10 mM CaCl2), 20°C, 2, 5 and 10 µM protein, 9,000, 13,000 and 16,000 rpm, single-species model

| Molecule | apparent molecular weight (single-species fit); oligomeric state ([1]; pH 5) | apparent molecular weight (single-species fit); oligomeric state ([1]; pH 8) | stoichiometry N [2] |
| --- | --- | --- | --- |
| PvS1FL (full-length Plasmodium vivax subtilisin-like protease 1, Sub1, autoprocessed with bound prodomain) | 135.8 ± 2.8 kDa (stable homodimer; theoretical monomer 67.71 kDa) | 67.9 ± 1.1 kDa (monomer; theoretical monomer 67.71 kDa) |  |
| full-length Plasmodium vivax Sub1 (PvS1FL), recombinant, autocleaved at Asp202 (enzyme, Prodomain of P. vivax Sub1 up to the primary maturation site Asp202; Catalytic domain of P. vivax Sub1, from the residue after the primary maturation site Asp202 to the C-terminus) chain 1: GDILPNEGKKEKDDVHKIISELRFLQKVETILESSNMSVSDVEADANAYNPDRDAPKEELQKLQDQQETPSKQPNNLRNSPQKRAEKKESPGKNKKSLRLIVSENHATSPSFFEESLLQEDVVSFIQSKGKLSNLKNLKSMIIDLNSDMTDEELAEYISLLERKGALIESDKLVGAD chain 2: DVSLASVKDAVRRGESSVNWGKLRSTMLEVPSGESPPSHAASSGSPFDDDDDLLSEAALHREEAHLAGSKTTKGYKFNDEYRNLQWGLDLARLDETQDLINANRVSVTKICVIDSGIDYNHPDLRNNIDVNVKELHGRKGVDDDSNGVVDDVYGANFVNNSGDPMDDNYHGTHVSGIISAVGNNGIGIVGVDGHSKLVICKALDQHKLGRLGDMFKCIDYCISRQAHMINGSFSFDEYSNIFNASVEHLRSLGILFFVSASNCAHDKLSKPDIAKCDLAVNHRYPPILSKTHNNVIAVANLKRDLDESYSLSVNSFYSNIYCQLAAPGTNIYSTTPMNNYRKLNGTSMASPHVAAIASIVRSINPNLTYLQIVEILRNAIVKLPSLTERVSWGGYVDILRAVNLAIDSKAAPYIKSHSWFRWKQGSRR |  |  | 2 |
